Test results published in PMC3448853.

What was measured:
Test in all cases: SEC
[1] = target: aglycosylated Fc5 (E382V/M428I) variant of human IgG1 Fc (human)
[2] = target: aglycosylated human IgG1 Fc (wild type), E. coli expressed (human)
[3] = target: glycosylated human Fc (wild type), Bethyl Laboratories (human)

aglycosylated Fc5 (E382V/M428I) variant of human IgG1 Fc (domain or fragment)
stoichiometry N [1]: 2

aglycosylated human IgG1 Fc (wild type), E. coli expressed (domain or fragment)
stoichiometry N [2]: 2

glycosylated human Fc (wild type), Bethyl Laboratories (domain or fragment)
stoichiometry N [3]: 2
